The DeepSol protein solubility set

Assay: soluble on expression in E. coli; label from the status in PepcDB or PDB records

Question: Which “soluble on expression in E. coli” value does the source give for “MSTHASAHGSTHTSTHHPIAVIGAGLGGLAAARVLHVHGIEAAVYEADASPTARHQGGMLDIHGESGQAALRAAGLYEEFRAIVHPGGEATRILDKDGTVRHEEGDRPEEGDRPEVDRNDLRRILLDSLPEGTIRWGAKVTGARALGGGRHEVTLADGSVFTTDVLIGADGAWSRIRPLLSPATPAYTGISFVEADLHEAATRHRAAAELVGGGSMFALAEGKGILTHLETDGSVHAYVALKADEDWLSTIDFTGTDTDTAKKTLLTHFEDWDDRLRALITDADGALVPRLIHALPVDHRWERTAGVTLLGDAAHLMSPFAGEGANLALLDGAELATALAAHPADPESALTAYERSLFPRSHRAAGESAANLTFMFGPNALEELVGMMSGHEPSDRLEHHHHHH” here?
Answer: The value was “soluble”.

Question: With “MPASYAYLGPEGTFTEVALRTLPEAATRELVPMVSVPAALDAVRNGEAEAAFVPIENSVEGGITTTLDELVAGEPLMIYREVLLSITFALLVRPDTKLSEIKTVTAHPAAQPQVRNWMKANLPDVVWESAASNADGARLVQEGRYDAAFAGEFAAAKYGLVPLETGIHDAENAQTRFVLVGRPAR” as the sequence, how does the “soluble on expression in E. coli” value read?
Answer: Its value is “not soluble”.

Question: For “MRIYLIGFMCSGKSTVGSLLSRSLNIPFYDVDEEVQKREGLSIPQIFEKKGEAYFRKLEFEVLKDLSEKENVVISTGGGLGANEEALNFMKSRGTTVFIDIPFEVFLERCKDSKERPLLKRPLDEIKNLFEERRKIYSKADIKVKGEKPPEEVVKEILLSLEGNALGG”, which “soluble on expression in E. coli” value is on record?
Answer: The value was “soluble”.

Question: Which “soluble on expression in E. coli” value does the source give for “MAHHHHHHMDRQVINLEEILPFSYTRDVELVPMYCFEVKKEVAKDALNIMKDYINNQLYDKYNHLKRCRKCTDSVQILIGACNHIPFELSQKLIEKMKQENNNDEFNDIIITKIMVSKYAPITRKQYIEWSTYWPLYFRKPDKDILILTKEEINKYIKLLYISIDIGKQFGTCNSGCIITYNDEIIASSGDNIKNHPLHHAPMLAIEQVSYKLRHIWLNKQTEKNNLQKKMKIIHKQQINNRDSLNDHKHENNKSNHNILIDHIPNDQYLCTNFFAFLSHEPCYMCAMALLHSRIKCVIFDKENKNNGALSSQEKLHCIKNLNHHFKVFKTIRG” here?
Answer: The value was “not soluble”.

Question: For “YYHSVIVANLAETAAEKIGANPILARIGAYYHDIGKMKRPHFFTENIRDGKNPHEDITPSLSHLVLNEHVKYGVELARKYRLPLLVEFIIPQHHGTRSQKYFYYKAKQQFEDIPEEEFRYPGPKPQFKEAAIIMLADSVEA”, which “soluble on expression in E. coli” value is on record?
Answer: Its value is “soluble”.

Question: Which “soluble on expression in E. coli” value does the source give for “MGDLKDGTYKLEEKNEKNGYRAVFEMTVKDGKITESKYDNINADGKSKTEDTKYEESMKAKSGVGPKEYIKQLNDSFVKAQSASGVEVVTGATHSSESFQNYAQQLIQAAQAGNTDTIEIDNGATLKDGTYSLKEKNDSNGYHTTFSMTVKDGKVTESNYDNVNADGKSKKDDTEYESKMKDVAGVGPKEYIETLNKEFVKAMGEEDGSPAGVEVVTGATHSTHSFINYAQQLVNAAEKGDTTEIVVDNIVTKLEHHHHHH” here?
Answer: The value was “soluble”.

Question: For “MDTLPECPITNTASLLPHSGRMVLIDRITRYGDDFVEAGAQVSPNHILLLDDKLPYTAFIELMAQAVGAYAGIQARKNARSVRLGFLLGTRKLEIFAQSVPIGTHLLATAHMSIQDAGGMGVFDCELRWTDAPETSSETLPSDGILARASLNVYSPEHPAGTTDAVLEHHHHHH”, which “soluble on expression in E. coli” value is on record?
Answer: The value was “not soluble”.

Question: Which “soluble on expression in E. coli” value does the source give for “ASMTGGQQMGRDPGMTVTSQVKPEDEMDNWGRLILDGVSYSDMVGARDRPKEITWFDYWMSLANEYEQEAERKVALGHDLSAGELLMSAALCAQYAQFLWFDERRQKGQARKVELYQKAAPLLSPPAERHELVVDGIPMPVYVRIPEGPGPHPAVIMLGGLESTKEESFQMENLVLDRGMATATFDGPGQGEMFEYKRIAGDYEKYTSAVVDLLTKLEAIRNDAIGVLGRSLGGNYALKSAACEPRLAACISWGGFSDLDYWDLETPLTKESWKYVSKVDTLEEARLHVHAALETRDVLSQIACPTYILHGVHDEVPLSFVDTVLELVPAEHLNLVVEKDGDHCCHNLGIRPRLEMADWLYDVLVAGKKVAPTMKGWPLEHHHHHH” here?
Answer: Its value is “soluble”.

Question: With “MHHHHHHSSGLVPRGSGMKETAAAKFERQHMDSPDLGTDDDDKMKLQSPEFQSLFTEGLKSLTELFVKENHELRIAGGAVRDLLNGVKPQDIDFATTATPTQMKEMFQSAGIRMINNRGEKHGTITARLHEENFEITTLRIDVTTDGRHAEVEFTTDWQKDAERRDLTINSMFLGFDGTLFDYFNGYEDLKNKKVRFVGHAKQRIQEDYLRILRYFRFYGRIVDKPGDHDPETLEAIAENAKGLAGISGERIWVELKKILVGNHVNHLIHLIYDLDVAPYIGLPANASLEEFDKVSKNVDGFSPKPVTLLASLFKVQDDVTKLDLRLKIAKEEKNLGLFIVKNRKDLIKATDSSDPLKPYQDFIIDSREPDATTRVCELLKYQGEHCLLKEMQQWSIPPFPVSGHDIRKVGISSGKEIGALLQQLREQWKKSGYQMEKDELLSYIKKT” as the sequence, how does the “soluble on expression in E. coli” value read?
Answer: The value was “soluble”.

Question: With “MVQSSSVLREPSMDEILTSIREIIEENAVHPDYFSNEGAAGNSSRENLEIPSEGVYDTSLSVDDAMKALADRIGLSSENHDFSLTKDKESIEAENNTVGVDMQKMKRSSEEQSSVHRTQEHNKPFSQSENVIAGHVELSAYCISSAEKIAKDVLRPAIAEWLQHKLPVLLEDILREEIVRAIKKSS” as the sequence, how does the “soluble on expression in E. coli” value read?
Answer: Its value is “not soluble”.

Question: For “MLRVRLTKMQSDELDAIIGELQAQMPEASVTTSSIARYALEKYVSDHIAKRDGTKIFIEINTADATEEEIKNLYDLLSKLFDEAKENYSPMVHYMVGEILEPLMMKMARLMKLKKPEVKAGE”, which “soluble on expression in E. coli” value is on record?
Answer: The value was “not soluble”.

Question: For “GPGSMINWCEGCSNRNNNTQPELVLGNETFVTHGVAAPDKGSKYPLGGPFRLRESRTGNYITDKELFQDHWTLLYFGFSKCAEVCPSTLRFITDVMKACDEKLAGDKNLSTEAARLQAVFLSVDSRRDTPEVLEGFVSKYDPRVRGLTGTSKEIEQAARAWRVYYSSIDETDEEKSAREAKGVPMVGADDDTYQLDHSSAIYLVGVDGKLKDFFFKEMGVADAVGRLEVHLQDVYGFKDTRG”, which “soluble on expression in E. coli” value is on record?
Answer: Its value is “not soluble”.

Question: Which “soluble on expression in E. coli” value does the source give for “MSDPHQSQQLVTAGTALSEASAAAVLVHGRGATARSIVQMGAEFQQDGLALLAPQAARNTWYPNSFLSPVEQNEPGRSSGLQAIEDAVTKAAEAGIPTDHVLILGFSQGACLASEFVARNPQRYGGLVALSGGLIGESIDESEYEGDIEETPVFLGCSNVDPHIPEERVHVTASVFERLNGDVEERIYEGMGHGVNEDELAYVSSLTAGLVN” here?
Answer: Its value is “not soluble”.

Question: Which “soluble on expression in E. coli” value does the source give for “MSLETQWTRMTADEAAEIIQHNDMVAFSGFTPAGSPKALPTAIARRANEQHEAKKPYQIRLLTGASISAAADDVLSDADAVSWRAPYQTSSGLRKKINQGAVSFVDLHLSEVAQMVNYGFFGDIDVAVIEASALAPDGRVWLTSGIGNAPTWLLRAKKVIIELNHYHDPRVAELADIVIPGAPPRRNSVSIFHAMDRVGTRYVQIDPKKIVAVVETNLPDAGNMLDKQNPMCQQIADNVVTFLLQEMAHGRIPPEFLPLQSGVGNINNAVMARLGENPEIPPFMMYSEVLQESVVHLLETGKISGASASSLTISADSLRKIYDNMDYFASRIVLRPQEISNNPEIIRRLGVIALNVGLEFDIYGHANSTHVAGVDLMNGIGGSGDFERNAYLSIFMAPSIAKEGKISTVVPMCSHVDHNEHSVKVIITEQGIADLRGLSPLQRARTIIDNCAHPMYRDYLHRYLENAPGGHIHHDLSHVFDLHRNLIATGSMLGEGHHHHHH” here?
Answer: Its value is “soluble”.

Question: With “MARTVDLELEAQIDILRDNNKKYENILKLAQTLSTQLFQMVHTQKQLGDAFADLSLKSLELHEKFGYNADTQKLLAKNGETLLGAINFFIASVNTLVNKTIEDTLMTVKQYENARVEYDAYRTDLEELNLGPRDANTLPKIEQSQHLFQIHKEKYDKMRSDVSVKLKFLEENKVKVLRNQLVLFHSAVAAYFAGNQKQLELTLKQFHVRLKTPGVDAPSWLEEQ” as the sequence, how does the “soluble on expression in E. coli” value read?
Answer: The value was “soluble”.

Question: With “MIRVHSYESMGTFDGPGLRLVVFLQGCNFRCLYCANPDTIDTKGESTETAIDEIVRMAVSQKAFFGKKGGVTFSGGEPTLQAKALIPLFQRLKEQNIHICIDTNGSIWNEEVEELLKWTDLVLLDIKEFNNVRHRQLTERSNEQTIRTAEWLEKNGKPFWLRYVLVPGYSSFEEDIRALGEHFKNYHMIQRVEILPYHTLGVHKYEAMGKEYKLNGIKENTLEQLETAKTLFGEYFNTVYLN” as the sequence, how does the “soluble on expression in E. coli” value read?
Answer: Its value is “not soluble”.

Question: For “MKVAIIACQKMVEMGCPGKEACVSCFKAINEKSGAFERYKDVELVAFTTCGGCPGRRFPMRVKLLKTAAGAEAIHIANCTFLQPECPYINFDEICKKLMEELEIPIVFGTHTLVKKGEVVCTCGDNKE”, which “soluble on expression in E. coli” value is on record?
Answer: Its value is “not soluble”.

Question: Which “soluble on expression in E. coli” value does the source give for “MKKQVVEVLVEGGKATPGPPLGPAIGPLGLNVKQVVDKINEATKEFAGMQVPVKIIVDPVTKQFEIEVGVPPTSQLIKKELGLEKGSGEPKHNIVGNLTMEQVIKIAKMKRSQMLALTLKAAAKEVIGTALSMGVTVEGKDPRIVQREIDEGVYDELFEKAEKE” here?
Answer: Its value is “soluble”.

Question: With “MDMKHTLLEALGIEIVENTAERCVAVMPVDHRTVQPFGYLHGGASVALAETAARPGAQNLIDHTTQACVGLEINANHLKSVKEGTVKAIAEPVHIGRTTIVYHIHIYDEQERLICISRCTLAVIKKLEHHHHHH” as the sequence, how does the “soluble on expression in E. coli” value read?
Answer: The value was “soluble”.

Question: With “MVATEKKFTLRHIFKNVSQLEDGKYLYSPDEDHFNVDWNMSISHKKEKLGVYFYCYKSEESASAWSIDTEYDLALKNSSGKRISIDFKYKFSTSTGFGTAELVSWDAMIKDYLIDDVIIMEATVKIINLMGIPKKTLRTFDESNEEFSDVILTVEDEKFYVLKQFLASHSSHFKTLFLRKCEEEAEKSEYTLQDINSIDFQNLLEVLHGEPAIDEETVQGIRDLADKYDMPFPTRKCEEFLIDLSEKSIKEKLKIAKQFQLEKLKMHCLSKIETVDHIKAAMTGDPIEMDLSVLAALLGKSLALH” as the sequence, how does the “soluble on expression in E. coli” value read?
Answer: Its value is “not soluble”.

Question: With “MKRGKRLILPLLGTLILTSLFSCGVDRWPEYYPETGRDIWIDSVMRQEYLWYRDMPSPAAPDYFQKPEAFLKKAVASMDNGFSKIDSLLDEPIPSYGFDYTLYKVLDNDTAYNALISYVVPGSPAEEAGLQRGHWIMMMNGDYITKKVESELLQGSTRQLQIGVYKEVVGEDGEVTGGVVPIGETTMPASRSLVDKPVHRFEIIPWNGKKVGYLMYNEFKAGPTTDSQAYNDDLRRAFRDFQTGGVNEFVLDLRYNTGGSLDCAQLLCTMLAPADKMNQLLALLRYSDKRVEANQDLTFNPELIQSGANLNLSTVYVLTTNATRGAAEMVINCLNPYMKVVLIGTKTAGEYVATKPFVHPTDRFILNLVVCNVYNAEEKSDYATGFKPTYEYNEDSYLSTYLPFGNTNETLLNAALKIMSGITDK” as the sequence, how does the “soluble on expression in E. coli” value read?
Answer: Its value is “not soluble”.

Question: With “MAHHHHHHMHSSPFPSLFLVSRNGAHASRFSVVQLEYITSTCFSLLQVVTYRVATCSHGTMTALADEVREKYSLSLSSDYVERCVQAKASLTSLELYQKSLWENLRDICGTSLLPYGIGAQVSATLPNAVVMQINASRDATQPLRPCADASDEEAFLNAAFQRNSSKRLLRLQLTDGNVEISALELSTLCVFQGIPTPGEKLLIHKGAEVRNGCIILSEGSVSVLGGEVRQLKQDFLANRRRLEVGYQTSNGLDGAPRFAPLQVGHHYRSSVANSGAPVDIGHQGGASPYHANERGGRRSNYSRNGGGGGRAQQAGDNYEGRVSAGDHGRGGRGGRGGRGWDSSYGGDGWRGHGRRGGGYVRRGDGGRVDSRGCVGGASYHVDTANFQPPAEKFPEINEANFPRLV” as the sequence, how does the “soluble on expression in E. coli” value read?
Answer: The value was “not soluble”.

Question: With “MSRNQIYITQEQFDFFCQTQRPYEGFVEGVGYAFVHRGFVNPHANRPTNPFRQTKGYVLPFKQQLIEVSPDLIANSLKCNKTTDTPQEAPERDSRYLGERFYTKDGRYVYIGTMSGGWVCYDRSGNRILEQLPEIIVYSSKEPGRSIIGTGKD” as the sequence, how does the “soluble on expression in E. coli” value read?
Answer: Its value is “not soluble”.

Question: For “MFTIRKARIDDCGLINQMAGEVFPATYQEILSPGQLDYMMDWMYSPENIRKQMEEEGHVYFIAYEGDEPCGYVSVQQQEENVFHLQKIYVLPHFQGAHCGSFLFREAVRYIKEVHPEPCLMELNVNRNNKALLFYERMGMRKLREGDFPIGNGYYMNDYIMGLDI”, which “soluble on expression in E. coli” value is on record?
Answer: Its value is “not soluble”.
